Data as given in patent US20260193347A1 (UNIVERSITY OF FLORIDA RESEARCH FOUNDATION, published 2026).

What was measured:
[1] = molecular target: T1, Venus-tagged full length GPR158 (mGlyR) transiently expressed on HEK293 cells (human, UniProt Q5T848 24-1215); assay: flow cytometry titration on GPR158-transfected HEK293 cells
T1 construct: This is the flow cytometry target; not shown: Venus tag
T1 sequence: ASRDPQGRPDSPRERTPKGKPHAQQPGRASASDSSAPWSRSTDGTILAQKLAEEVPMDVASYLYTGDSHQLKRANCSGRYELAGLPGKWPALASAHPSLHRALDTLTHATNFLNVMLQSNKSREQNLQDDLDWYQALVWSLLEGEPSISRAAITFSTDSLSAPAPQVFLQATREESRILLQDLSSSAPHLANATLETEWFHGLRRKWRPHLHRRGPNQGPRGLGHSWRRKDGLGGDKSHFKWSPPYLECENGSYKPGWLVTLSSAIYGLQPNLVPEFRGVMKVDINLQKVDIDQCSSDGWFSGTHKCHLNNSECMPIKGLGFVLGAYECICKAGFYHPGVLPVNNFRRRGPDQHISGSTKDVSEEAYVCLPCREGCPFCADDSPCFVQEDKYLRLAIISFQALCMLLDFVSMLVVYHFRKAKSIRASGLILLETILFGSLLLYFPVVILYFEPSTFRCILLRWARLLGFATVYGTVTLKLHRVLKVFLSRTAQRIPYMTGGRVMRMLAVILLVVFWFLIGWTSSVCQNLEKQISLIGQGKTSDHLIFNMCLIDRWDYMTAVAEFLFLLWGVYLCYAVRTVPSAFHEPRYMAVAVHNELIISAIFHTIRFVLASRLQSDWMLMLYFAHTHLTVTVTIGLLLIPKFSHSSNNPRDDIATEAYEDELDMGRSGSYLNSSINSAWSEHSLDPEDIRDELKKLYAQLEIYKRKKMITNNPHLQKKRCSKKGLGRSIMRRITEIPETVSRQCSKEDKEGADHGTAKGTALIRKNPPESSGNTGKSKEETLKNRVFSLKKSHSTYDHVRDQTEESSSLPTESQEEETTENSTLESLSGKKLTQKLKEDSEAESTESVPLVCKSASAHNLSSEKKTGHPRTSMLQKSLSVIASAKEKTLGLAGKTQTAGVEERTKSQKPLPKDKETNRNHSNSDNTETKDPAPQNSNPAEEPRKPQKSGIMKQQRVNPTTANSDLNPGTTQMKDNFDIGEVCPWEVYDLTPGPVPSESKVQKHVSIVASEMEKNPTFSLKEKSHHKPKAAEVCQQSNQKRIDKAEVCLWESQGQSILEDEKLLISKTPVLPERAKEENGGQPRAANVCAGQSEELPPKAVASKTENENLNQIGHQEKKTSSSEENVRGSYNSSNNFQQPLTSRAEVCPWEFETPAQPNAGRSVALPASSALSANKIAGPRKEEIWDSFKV

[2] = molecular target: T2, mGlyR (GPR158) co-expressed in HEK293FT cells in the BRET-based GAP assay (human, UniProt Q5T848 24-1215); assay: cell-based or functional assay
T2 sequence: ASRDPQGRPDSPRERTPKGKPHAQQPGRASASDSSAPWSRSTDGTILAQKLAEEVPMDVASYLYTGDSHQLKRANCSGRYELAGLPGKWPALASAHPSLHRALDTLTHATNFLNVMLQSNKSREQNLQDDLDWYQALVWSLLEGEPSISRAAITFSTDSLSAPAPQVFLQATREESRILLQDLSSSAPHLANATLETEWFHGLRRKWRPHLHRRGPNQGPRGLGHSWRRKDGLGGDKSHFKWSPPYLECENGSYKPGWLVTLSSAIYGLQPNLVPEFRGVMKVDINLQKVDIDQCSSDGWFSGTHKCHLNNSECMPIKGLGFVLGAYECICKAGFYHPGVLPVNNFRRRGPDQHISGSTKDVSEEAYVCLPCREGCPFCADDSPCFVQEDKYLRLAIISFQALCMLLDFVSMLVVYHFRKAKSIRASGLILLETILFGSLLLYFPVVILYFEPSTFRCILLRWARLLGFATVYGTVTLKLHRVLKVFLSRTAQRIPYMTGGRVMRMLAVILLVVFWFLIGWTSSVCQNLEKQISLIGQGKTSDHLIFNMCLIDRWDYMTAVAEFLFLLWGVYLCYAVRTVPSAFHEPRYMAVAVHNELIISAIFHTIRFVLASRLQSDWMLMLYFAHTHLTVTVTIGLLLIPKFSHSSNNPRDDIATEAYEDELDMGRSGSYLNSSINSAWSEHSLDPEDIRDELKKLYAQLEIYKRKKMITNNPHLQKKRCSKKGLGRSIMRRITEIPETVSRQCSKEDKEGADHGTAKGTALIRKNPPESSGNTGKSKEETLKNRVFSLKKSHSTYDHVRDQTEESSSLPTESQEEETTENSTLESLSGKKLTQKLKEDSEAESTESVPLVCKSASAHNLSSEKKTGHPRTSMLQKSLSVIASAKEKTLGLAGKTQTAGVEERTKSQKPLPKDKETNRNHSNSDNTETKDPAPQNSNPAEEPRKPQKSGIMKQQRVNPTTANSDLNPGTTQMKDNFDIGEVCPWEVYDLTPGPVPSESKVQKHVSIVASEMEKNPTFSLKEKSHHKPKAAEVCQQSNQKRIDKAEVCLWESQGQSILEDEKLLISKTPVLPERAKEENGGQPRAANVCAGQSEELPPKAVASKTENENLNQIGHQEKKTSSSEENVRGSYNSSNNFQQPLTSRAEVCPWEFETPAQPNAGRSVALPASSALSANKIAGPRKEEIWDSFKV

[3] = molecular target: T1, Venus-tagged full length GPR158 (mGlyR) …; assay: flow cytometry, % of positive cells against Log [Nanobody] (M), cells expressing mGlyR, n=3, detection with anti-myc-APC
Method: Error bars are SEM values (n=3 independent experiments).
HEK293FT cells were cultured in 6 well plates at the density of 1.10⁶ per well and transfected with 2 μg of cDNA of mGlyR or empty pcDNA3.1+ in control experiments, using Metafectene Pro. 48 h after transfection, cells were mechanically detached pipetting up-down, washed in PBS supplemented with 0.1% BSA, counted and incubated in PBS-0.1% BSA for 1 h at 4° C. under rotation. […] After 3 washes, cells were analyzed in LSR-II BD flow cytometer. Gating strategy to sort individual cells to debris and doublets was used.

B1: llama nanobody Nb20 (Nanobody-20), purified recombinant, myc- and His-tagged (VHH, not shown: small tags and cut ends)
VHH: EVQLQESGGGLVQAGGSLRLSCAASGSIGNIYIMGWYRQTPGPQRELVATIRTVRWTKYEDYADSVKGRFTISDDDAKNTVYLQMNSLKPEDTAVYYCNYKDYNAPSDGYWGQGTQVTVSS
notes: Expressed in E. coli BL21 DE3 from pET28a and purified on Ni-IDA; Detected by an anti-myc-APC antibody in flow cytometry; The two passages disagree on where the tags sit; also called clone number 20
EC50 [1]: ~10 nM
IC50, dose-response of changes in GAP activity (BRET-based GAP assay) [2]: ~6 nM
IC50, inhibition of GAP activity of GPR158 via RGS7/Gβ5 (BRET-based GAP assay) [2]: 5.77 nM
EC50 [3]: 9.9 nM
